Paper PMC3273594

Key:
[1] = molecular target: TOAC labeled wild-type PLB; assay: SDS-PAGE
[2] = molecular target: T1, Wild-type Phospholamban, P61014; assay: SDS-PAGE; conditions: remark: other sources report otherwise
T1 chain: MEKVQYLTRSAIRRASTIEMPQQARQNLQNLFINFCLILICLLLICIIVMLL

TOAC labeled wild-type PLB
stoichiometry N [1]: 5

B1: Wild-type Phospholamban, P61014 1-52 (natural protein)
chain: MEKVQYLTRSAIRRASTIEMPQQARQNLQNLFINFCLILICLLLICIIVMLL
stoichiometry N [2]: 5
